This is an account of results in the RNAGym collection of RNA variant scans (doi:10.1073/pnas.2313332121).

Variants at the floor of the assay were thinned out.

B1: TPR 5TU (parent)
chain: GGAUCUUCUCGAUCUAACAAAAAAGACAAAUCUGCCACAAAGCUUGAGAGCAUCUUCGGAUGCAGAGGCGGCAGCCUUCGGUGGCGCGAUAGCGCCAACGUUCUCAACUAUGACACGCAAAACGCGUGCUCCGUUGAAUGGAGUUUAUCAUG

The series covers variants of B1. The series is described as follows: polymerase ribozyme fitness, log enrichment relative to wild type (log ratio); higher = more active; in vitro selection for triplet polymerase activity. The method, boiled down: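 Mutant libraries of each subunit of a heterodimeric triplet polymerase ribozyme were built by PCR and transcribed. Each library went through one round of in vitro selection in triplicate: annealing with biotinylated primer, partner subunit and triplets, frozen incubation at −7 °C, gel excision of extended constructs, streptavidin-bead capture and RT-PCR. Input and output libraries were Illumina-sequenced; only genotypes with ≥10 input reads and ≥1 read per output were kept. Fitness is log2(genotype enrichment/wild-type enrichment), using inverse-variance-weighted replicate averages.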
Turning to GGAUCUUCUCGAUCUAACAAAAAAGACAAAUCUGCCACAAAGCUUGAGAGCAUCUUCGGAUGCAGAGGCGGCAGCCUUCGGUGGCGCGAUAGCGCCAACGUUCUCAACUAUGACCCGCAAAACGCGUGCUCCUUUGAAUGGAGUUUAUCAUG [A115C G133U], the “polymerase ribozyme fitness (log ratio)” value is -3.74. For GGAUAUUCUCGAUCUAACAAAAAAGACAAAUCUGCCACAAAGCUUGAGAGCAUCUUCGGAUGCAGAGGCGGCAGCCUCCGGUGGCGCGUUAGCGUCAACGUUCUCAACUAUGACACGCAAAACGCGUGCUCCGUUGAAUGGAGUUUAUCAUG [C5A U78C A89U C95U], the “polymerase ribozyme fitness (log ratio)” value was -1.72. On to GGAUCUUCUCGAUAUAACAAAAAAGACAAAUCUGCCACAAAGCUUGAGAGCAUCUUCGGAUGCAGAGGCGGCAGCCUUCCGUGGCUCGAUAGCGCCAACGUUCUCAACUAUGACACGUAAAACGCGUGCUCCGUUGAAUGGAGUUUAUCAUG [C14A G80C G86U C118U], for which the “polymerase ribozyme fitness (log ratio)” value is at most -4.2.

As to GGAUCUUCUCGAUCUAACAAAAAAGACAAAUCUGCCACAAAGCUUGAGAGCAUCUUCGAAUGCAGAGGCGGCAGCCUUCGGUGGCGCGAUAGCACCAACGUUCUCAACUAUGACACGCAAAACGCGUGCUCCGUUGAAUGGAGUUUAUCCUG [G59A G94A A150C], the “polymerase ribozyme fitness (log ratio)” value is at most -4.2. For the variant GGAUCUUCUCGAUCGACCAAAAAAGACAAAUCUGCCACACAGCUUGAGAGCAUCUUCGGAUGCAGAGGCGGCAGCCUUCGGUGGCGCGAUAGCGCCAACGUUCUCAACUAUGACACGCAAAACGCGUGCUCCGUUGAAUGGAGUUUAUCAUG [U15G A17C A40C], the “polymerase ribozyme fitness (log ratio)” value was 0.895. For the variant GGAUCUUCGCGAUCUAACAAAAAAGACAAAUCUGCCACAAAGCUUGAGAGGAUCUUCGGAUGCAGAGGCGGCAGCCUUCGGUGACGCGAUAGCGCCAACGUUCUCAACUAUGACACGCAAAACGCGUGCUCCGUUGAAUGCAGUUUAUCAUG [U9G C51G G84A G141C], the “polymerase ribozyme fitness (log ratio)” value is at most -4.2. Take GGAUCUUCUCGAUCUAGCAAAAAAGACAAAUCUGUCACAAAGCUUGAGAGCAACUUCGGAUGCAGAGGCGGCAGCCUUCGGUGGCGCGAUAGCACCAACGUUCUCAACUAUGACACGCAAAACGCGUGCUCCGUUGAAUGGAGUUUAUCAUG [A17G C35U U53A G94A]: the “polymerase ribozyme fitness (log ratio)” value was -1.28. Take GGAUCUUCUCGAUCUAACAAAAAAGACAAAUCUGCCACAAAGCUUGAGAGCAUCUUCGGAUGUAGAGGCGGCAGCAUUCGGUGGCGCGAUAGCGCCAACGUUGUCAACUAUGACACGCAAAACGCGUGCUCCGUUGAAUGGAGUUGAGCAUG [C63U C76A C103G U146G U148G]: the “polymerase ribozyme fitness (log ratio)” value was at most -4.2. As for GGAUCUUCUCGAUCUAAAAAAAAAGACAAAUCUGCCACAAAGCUUGAGAGCAUCUACGGAUGCAGAGGCGGCAGCCUUCGGUGGGGCGAUAGCGCAAACGUUCUCAACUAUGACACGCAAAACGCGUGCUCCGUUGAAUGGAGUUUAUCAUG [C18A U56A C85G C96A], the “polymerase ribozyme fitness (log ratio)” value was -3.54. As for GGAUCUUCUUGAUCUAACAAAAAAGACAAAUUUGCCACAAAGCUUGAGCGCAUCUUCGGAUGCAGAGGCGGCAGCCUUCGGUGGCGCGAUAGCGCCAACGUUCUCAACUAUGACACGCAAAACGCGUGCUCCGCUGAAUGGAGUUUAUCAUG [C10U C32U A49C U134C], the “polymerase ribozyme fitness (log ratio)” value is at most -4.2. As to GGAUCAUCUCGAUCUAACAAAAAAGACAAAUCUGCCACAAAGCUUGAGAGCAUCUUCGGAAGCAGAGGCGGCAGCCUUCGGUGGCGCGAUAGAGCCAACGUUCUCAACUAUGACACGCAAAACGCGUGCUCCGUUGAAUGGAGUUUAUCAUG [U6A U61A C93A], the “polymerase ribozyme fitness (log ratio)” value was at most -4.2. Take GGAUCUUCUCGAUCUAACGAAAAAGACAAAUCCGCCACAAAGCUUGAGCGCAUUUUCGGAUGCAGAGGCGGCAGCCUUCGAUGGCGUGAUAGCGCCAACGUUCUCAACUAUGACACGCAAAACGCGUGCUCCGUUGAAUGGAGUUUAUCAUG [A19G U33C A49C C54U G81A C87U]: the “polymerase ribozyme fitness (log ratio)” value is at most -4.2. Take GGAUCUUCUCGAUCUAACAAAAAAGACAAAUCUGCCACAAAGCUUGAGAGCAUCUUCGGGUGCAGAGGCGGCAGCAUUCGGUGGCGCGAUGGCGUCAACGUUCUCACCUAUGACACGCAAAACGCGUGCUCCGUUGAAUGGAGUUUAUCAUG [A60G C76A A91G C95U A107C]: the “polymerase ribozyme fitness (log ratio)” value was at most -4.2.

Consider GGAUCUUCUCGAUCUAACUUAAAAGACAAAUCUGCCACAAAGCUUGAGAGCAUCUUCGGAUGCAGAGGCGGCAGCCUUCGGUGGUGCGAUAGCGCCAACGUUCUCAACUAUGACACGCAAAACGCGUGCUCCGUUGAAUGGAGUUUAUCAUG [A19U A20U C85U], for which the “polymerase ribozyme fitness (log ratio)” value was -2.59.

For GGAUCUUCUCGAUCUAACAAAAAAGACAAAUCUGCCACAAAGCUUGAGAGCAUCUUCGGAUGCAGAGGCGGCAGCCUUCGGUGUCCCGAUAGGGCCAUCGUUCUCAACUAUGACACGCAAAACGCGUGCUCCGUUGAAUGGUGUUUAUCAUG [G84U G86C C93G A98U A142U], the “polymerase ribozyme fitness (log ratio)” value is -1.78. Regarding GGAUCUUCUCGAUCUAACAAAAAUGACAAAUCUGUCAGAAAGCUUGAGAGCAUCUUCGGAUGCAGAGGCGGCAGCCUUCGGUGGCGCGUUUGCGCCAACGUUCUCAACUAUGACACGCAAAACGCGUGCUCCGUUGAAUGGAGUUUAUCAUG [A24U C35U C38G A89U A91U], the “polymerase ribozyme fitness (log ratio)” value was -3.93. As for GGAUCUUCUCGAUCUAACAAAAAAGACAAAUCUGCCACAAAGCUUGAGAGCAUCUACGGAUGCAGAGGCGGCAGCCUUCGGUGGCGCGAUAGUGCCAACGUUCUCAACUAUGACAUGCAAAACGCGUGCUCCGUUGAAUGGAGUUUAUCAUG [U56A C93U C116U], the “polymerase ribozyme fitness (log ratio)” value is -1.11. For GGAUCUUCUCGAUCUAACAAAAAAGACAAAUCUGCCACAGAGCUUGAGAGCAUCUUCGGAUGCAGAGGCGGCAGCCUUCGGUGGUGCGAUAGCGCCAACGUUCUCAACUAUGACACGAAAAACGCGUGCUCCGUUGAAUGGAGUUUAUCAUG [A40G C85U C118A], the “polymerase ribozyme fitness (log ratio)” value is -2.77. The result for GGAUCUUCUCGAUCUAACAAAAAAGACAAAUCUGCCACAAAGCGUGAGAGCAUCUUCGGUUGCAGAGGCGGCAGCCUUCGGUGGCGCGAUAGCGCCAAGGUUCUCAACUAGGACACGCAAAACGCGUGCUCCGUUGAAUGCAGUUUAUCAUG [U44G A60U C99G U111G G141C] reads at most -4.2.
